The values that follow come from US20250221936A1, “ENGINEERED HEMICHANNELS, ENGINEERED VESICLES, AND USES THEREOF” (VIRGINIA TECH INTELLECTUAL PROPERTIES, INC., priority 2018, published 2025).

The subject of data set [1] is cancer stem cells CSCs. The conditions noted are these: CSCs derived from patient tumors; cited from earlier work.
Data set [2] deals with silicone implant. The data set is described as follows: Silicone implants coated with JM2. In kind it is in vivo, rat. The conditions noted are these: 180 micomolar in 25% pluronic gel. Here is the method:
25% pluronic F127 gel (Sigma-Aldrich, St. Louis, MO 63103), which is liquid at 4° C., but gels at 37° C., was used as a delivery vehicle for JM2 peptide. Pluronic gel has mild surfactant properties that aid in peptide dispersion. The JM2 peptide was reconstituted in IX PBS containing the 25% pluronic gel to a final concentration of 180 micomolar.
Animals were anesthetized with 2.75% isoflurane balance oxygen gas. After achievement of general anesthesia, the surgical site consisting of the animal's upper back was prepped by clipping fur down to skin and applying betadine scrub solution in triplicate. Sterile towels were draped to define the surgical field. PWAS Silicone sensors (5 mm diameter) were autoclave sterilized and warmed to 37° C. prior to implantation. For the treatment group, implants were dipped twice in JM2 pluronic solution prior to implantation. For the vehicle control group, the implants were dipped in saline only. This coating procedure produced an even coating of the implant. A muscle pocket was created under the latissimus dorsi muscle and implants were inserted. 50 μL of the corresponding solution was also injected into the muscle pocket prior to closure. The muscles were reapproximated with 4-0 Prolene (Ethicon Inc, Somerville, NJ 08876) and the skin closed with 4-0 Prolene and skin staples. […]

The subject of data set [3] is human MGMT-deficient and TMZ-resistant GBM cells. The conditions noted are these: cited from earlier work.
The target of data set [4] is T1, PKC-ε phosphorylation of Cx43-CT substrate at Ser368 (Rattus norvegicus, UniProt P08050).
T1 construct: substrate (Cx43-CT: amino acids 255 to 382); GST (N); made in house; host or cells: E. coli BL21 (Cx43 CT); PKC-ε purchased (Life, 37717L)
The note with it: purified PKC enzyme and Cx43 CT substrate; cited from earlier work.

The subject of data set [5] is C6 glioma cell line. The conditions noted are these: cited from earlier work.
The conditions of data set [6]: 0.05% Brij-78, corneal application, cited from earlier work; for peptide in aqueous humor / peptide in vitreous humor: 20 and 40 minutes.
Data set [7] deals with T2, GST-Cx43 CT QQ/KK (Rattus norvegicus, UniProt P08050, K345Q/K346Q).
T2 construct: pGEX-6-P2 Cx43 CT amino acids 255-382; made in house; host or cells: E. coli BL21
Put plainly: EDC cross-linking, Cx43 CT QQ/KK mutant substrate. The format is binding. The note with it: 5, 10 and 25 μM. Here is the method: (§1) To characterize the interaction between the Cx43 CT substrate and peptides, the in vitro kinase assay was performed as above with modification and the constituents then subjected to a cross-linking reaction. The assay buffer used was 20 mM 3-(N-morpholino) propanesulfonic acid (MOPS), pH 7.2. All other reagents present in the kinase reaction were maintained as described above. The reaction was allowed to proceed at 37° C. for 15 minutes. Afterwards, the carbodiimide crosslinker 1-Ethyl-3-(3-dimethylaminopropyl) carbodiimide HCl (EDC) (Thermo, 22980) was added to each solution for a final concentration of 20 mM. The solution was allowed to cross-link for one hour at room temperature. The reaction was stopped by the addition of 4×LDS loading buffer, boiled for 5 minutes and subsequently separated by PAGE. The resulting gel was stained in Coomassie brilliant blue (Sigma, B0770) for two hours and destained in a solution of 4% methanol 7% acetic acid overnight. Gel bands were subsequently excised for mass spectrometric analysis. For the direct interaction between protein and peptides, PBS, pH 7.5 was used as the coupling buffer. The protein (50 μg/ml) and peptide (25 μM) were allowed to react at room temperature for one hour before EDAC was added to the reaction mixture. The reaction was Western blotted for Cx43, GST or NeutroAvidin.

The target of data set [8] is T3, GST-Cx43 CT (Rattus norvegicus, UniProt P08050).
T3 construct: pGEX-6-P2 Cx43 CT amino acids 255-382; made in house; host or cells: E. coli BL21
Put plainly: EDC cross-linking of kinase reaction mixtures, Cx43 CT. In kind it is binding. The note with it: 5, 10 and 25 μM. Here is the method: as §1, with “NeutroAvidin. […]” for “NeutroAvidin.”

Like-named read-outs stand apart in the source and are kept apart here.

T3 sequence (P08050 255-382): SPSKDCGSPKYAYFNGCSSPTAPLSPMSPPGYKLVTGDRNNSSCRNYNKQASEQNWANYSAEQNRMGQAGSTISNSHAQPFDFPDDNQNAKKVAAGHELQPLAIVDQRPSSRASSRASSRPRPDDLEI
T1 sequence (P08050 255-382): as above
T2 sequence (P08050 255-382 K345Q/K346Q): as the sequence (P08050 255-382) above, with K91Q, K92Q counted along it

With VFFKGVKDRVKGRSD [JM2], in data set [1], the CSC survival entry is “decreases CSC survival in vitro and in vivo”. For the same sequence, in data set [2], the “healing, capsule formation, scarring and fibrosis” value was “improved healing and decreased capsule formation, scarring and fibrosis”; the “inflammation and skeletal muscle necrosis” value was “decreased inflammation and reduced skeletal muscle necrosis”.

Turning to RQPKIWFPNRRKPWKKRPRPDDLEI [alpha CT1], in data set [3], the “sensitivity to TMZ” value was “sensitized human MGMT-deficient and TMZ-resistant GBM cells to TMZ treatment”. Besides, in data set [4], the “S368 phosphorylation in vitro” value was “promoted S368 phosphorylation in vitro in a dose-dependent manner”. Moreover, in data set [5], the adhesive properties result is recorded as “did not change in response to peptide treatment” and the morphology entry was “altered morphology”. Further, in data set [6], the “peptide in aqueous humor” value was “detectable level of ACT1 in the internal fluids of the anterior chamber”, the “peptide in vitreous humor” value is recorded as “Lower levels of ACT1 could also be detected” and the “peptide in retinal pigment epithelial layer” value was “ACT1 was detectable in the retinal pigment epithelial layer”. Also, in data set [6] (listed as ACTI), the “peptide in aqueous humor” value is recorded as “detectable level of ACTI in the internal fluids of the anterior chamber”, the “peptide in vitreous humor” value was “Lower levels of peptide could also be detected” and the “peptide in retinal pigment epithelial layer” value was “peptide was detectable in the retinal pigment epithelial layer”. Also, in data set [7], the “EDC cross-linking to Cx43 CT QQ/KK mutant substrate” value is on record as “no evidence of cross-linking”. Moreover, the “EDC cross-linking to Cx43 CT” value in data set [8] is reported as “covalently linked by EDC to Cx43 CT in a concentration-dependent manner”.
